Here are results for two substances from patent US10143754B2, “Method for peroral delivery of insulin and its analogues for therapeutic usage” (TRANSGENE BIOTEK LIMITED, priority 2011, dated 2018).

The conditions of data set [1]: acid pH; cited from earlier work.
Data set [2] relates to Streptozotocin induced diabetic Wistar or Sprague Dawley rats. Description: Modification of blood/serum glucose of diabetic rats. It counts as in vivo, rat. To be noted: IV administration, FIG. 1.
The conditions of data set [3]: rat, in vivo, iv.

As for Insulin Glargine, the solubility entry in data set [1] is “soluble at acid pH”.

Take Insulin Lispro: in data set [2], the “duration of hypoglycemic effect” value is “short lived” and the “reduction of blood glucose levels” value was “rapid reduction of blood glucose levels”. In addition, the plasma insulin levels result in data set [3] is given as “increased in accordance with the reduction in serum glucose levels but reduced rapidly”.
